This is an account of results in article PMC12312913 (2025).

The target in experiment [1] is T1, J protein (bacteriophage, UniProt P0DXX7).
T1 chain: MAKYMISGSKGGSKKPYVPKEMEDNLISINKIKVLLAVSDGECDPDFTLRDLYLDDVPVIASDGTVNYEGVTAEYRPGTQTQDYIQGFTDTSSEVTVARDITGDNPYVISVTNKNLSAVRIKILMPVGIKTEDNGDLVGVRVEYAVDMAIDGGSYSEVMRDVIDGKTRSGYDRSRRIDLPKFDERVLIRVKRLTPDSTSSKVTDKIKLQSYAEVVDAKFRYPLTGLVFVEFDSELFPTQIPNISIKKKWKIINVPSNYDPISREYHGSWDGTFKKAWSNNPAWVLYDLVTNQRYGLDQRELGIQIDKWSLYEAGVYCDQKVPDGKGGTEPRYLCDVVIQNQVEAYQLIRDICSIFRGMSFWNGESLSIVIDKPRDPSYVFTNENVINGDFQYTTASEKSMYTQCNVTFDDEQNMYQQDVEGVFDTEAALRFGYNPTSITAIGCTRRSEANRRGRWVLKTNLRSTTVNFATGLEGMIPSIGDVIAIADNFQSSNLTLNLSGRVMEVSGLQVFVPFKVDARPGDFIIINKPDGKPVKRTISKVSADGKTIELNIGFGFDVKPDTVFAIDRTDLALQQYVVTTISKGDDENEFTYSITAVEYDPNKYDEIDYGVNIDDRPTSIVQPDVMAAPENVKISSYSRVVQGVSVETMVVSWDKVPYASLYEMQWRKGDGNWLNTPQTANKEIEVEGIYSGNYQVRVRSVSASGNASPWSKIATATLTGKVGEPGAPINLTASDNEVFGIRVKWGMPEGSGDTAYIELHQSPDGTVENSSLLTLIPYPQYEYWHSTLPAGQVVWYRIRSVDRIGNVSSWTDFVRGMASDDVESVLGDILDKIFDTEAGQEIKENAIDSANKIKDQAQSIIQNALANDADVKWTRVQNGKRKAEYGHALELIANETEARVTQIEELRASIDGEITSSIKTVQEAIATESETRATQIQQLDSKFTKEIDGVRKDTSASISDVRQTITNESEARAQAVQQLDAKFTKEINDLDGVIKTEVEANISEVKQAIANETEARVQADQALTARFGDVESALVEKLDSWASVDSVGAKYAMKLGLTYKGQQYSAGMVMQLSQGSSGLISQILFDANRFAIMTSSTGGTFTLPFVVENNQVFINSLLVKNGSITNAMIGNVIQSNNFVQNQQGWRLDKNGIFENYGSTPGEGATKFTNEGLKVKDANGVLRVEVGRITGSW
The experiment is described as follows: BLI.

Experiment [2] deals with Gifsy-1 central tail tip J protein with Flag tag (phage Gifsy-1 of Salmonella Typhimurium). The experiment is described as follows: BLI. In general terms: Biolayer interferometry detects binding as a change in optical thickness at a sensor tip.

The Kd is the free concentration of one partner at which half of the binding sites on the other are occupied at equilibrium, for simple one-to-one binding. The low end stands for higher affinity, the high end for lower affinity. Usually koff stands for the rate constant with which the complex falls apart. Low values mean a long-lived complex, high ones a short-lived complex.

B1: OmpX (protein)
chain: ATSTVTGGYAQSDAQGQMNKMGGFNLKYRYEEDNSPLGVIGSFTYTEKSRTASSGDYNKNQYYGITAGPAYRINDWASIYGVVGVGYGKFQTTEYPTYKHDTSDYGFSYGAGLQFNPMENVALDFSYEQSRIRSVDVGTWIAGVGYRF
B1 yielded a Kd in experiment [1] of 70 nM.

B2: OmpX fused to TF and His tag (receptor)
chain: MKKIACLSALAAVLAFSAGTAVAATSTVTGGYAQSDAQGVANKMSGFNLKYRYEQDDNPLGVIGSFTYTEKDRTNGAGDYNKGQYYGITAGPAYRLNDWASIYGVVGVGYGKFQTTDYPTYKHDTSDYGFSYGAGLQFNPMENVALDFSYEQSRIRSVDVGTWIAGVGYRF
As for B2, the koff in experiment [2] was determined as 0.000275 s⁻¹.

B3: BtuB (protein)
chain: QDTSPDTLVVTANRFQQPRSAVLAPVTIVTRQDIERWQSTSVNDVLRRLPGVDIAQSGGAGQNSSIFIRGTNSSHVLVLIDGVRLNLAGVSGSADLSQFPVSLVQRIEYIRGPRSAIYGSDAIGGVVNIITTRDNPGTELTAGWGSNSYQNYDISTQQQLGENTRATLIGDYEYTKGFDVVAKGGTGMQAQPDRDGFLSKTLYGALEHTFSDRWSGFVRGYGYDNRTDYDAYYSPGSPLIDTRKLYSQSWDAGLRFNGERIQSQLVSSYSHSKDYNYDPHYGRYDTSATLDEMKQYNVQWTNSVVVGHGNVGAGVDWQKQTTTPGTGYVPEGYDQRNTGVYLTGLQQLGDFTLEAAARSDDNSQFGRHGTWQTSAGWEFIEGYRFIASYGTSYKAPNLGQLYGYYGNPNLNPEKSKQWEGAFEGLTAGVSWRISGYRNDINDMIDYDDHLQKYYNEGKARIKGIEATANFDTGPLTHTVSYDYVDARNAITDTPLPRRSKQMAKYQLDWDVYDFDWGVTYQYLGSRYDSDYSAYPYRTVKMGGVSLWDLTVAYPVTSHLTVRGKIANLFDKDYETVYGYQTAGREYTLSGSYTF
In the case of B3, in experiment [1], binding was put at a Kd of 0.00597 nM. In other words, the picomolar range.
